B1: RVRa: Rev-Erb α (NR1D1), cDNA driver (protein, UniProt P20393 1-614, looked up)
Nuclear receptor subfamily 1 …: MTTLDSNNNTGGVITYIGSSGSSPSRTSPESLYSDNSNGSFQSLTQGCPTYFPPSPTGSLTQDPARSFGSIPPSLSDDGSPSSSSSSSSSSSSFYNGSPPGSLQVAMEDSSRVSPSKSTSNITKLNGMVLLCKVCGDVASGFHYGVHACEGCKGFFRRSIQQNIQYKRCLKNENCSIVRINRNRCQQCRFKKCLSVGMSRDAVRFGRIPKREKQRMLAEMQSAMNLANNQLSSQCPLETSPTQHPTPGPMGPSPPPAPVPSPLVGFSQFPQQLTPPRSPSPEPTVEDVISQVARAHREIFTYAHDKLGSSPGNFNANHASGSPPATTPHRWENQGCPPAPNDNNTLAAQRHNEALNGLRQAPSSYPPTWPPGPAHHSCHQSNSNGHRLCPTHVYAAPEGKAPANSPRQGNSKNVLLACPMNMYPHGRSGRTVQEIWEDFSMSFTPAVREVVEFAKHIPGFRDLSQHDQVTLLKAGTFEVLMVRFASLFNVKDQTVMFLSRTTYSLQELGAMGMGDLLSAMFDFSEKLNSLALTEEELGLFTAVVLVSADRSGMENSASVEQLQETLLRALRALVLKNRPLETSRFTKLLLKLPDLRTLNNMHSEKLLSFRVDAQ
B2: LXRb: Liver X Receptor β (NR1H2), cDNA driver (protein, UniProt P55055 1-460, looked up)
Oxysterols receptor LXR-beta: MSSPTTSSLDTPLPGNGPPQPGAPSSSPTVKEEGPEPWPGGPDPDVPGTDEASSACSTDWVIPDPEEEPERKRKKGPAPKMLGHELCRVCGDKASGFHYNVLSCEGCKGFFRRSVVRGGARRYACRGGGTCQMDAFMRRKCQQCRLRKCKEAGMREQCVLSEEQIRKKKIRKQQQESQSQSQSPVGPQGSSSSASGPGASPGGSEAGSQGSGEGEGVQLTAAQELMIQQLVAAQLQCNKRSFSDQPKVTPWPLGADPQSRDARQQRFAHFTELAIISVQEIVDFAKQVPGFLQLGREDQIALLKASTIEIMLLETARRYNHETECITFLKDFTYSKDDFHRAGLQVEFINPIFEFSRAMRRLGLDDAEYALLIAINIFSADRPNVQEPGRVEALQQPYVEALLSYTRIKRPQDQLRFPRMLMKLVSLRTLSSVHSEQVFALRLQDKKLPPLLSEIWDVHE

What follows are molecules tested on mPgc1b promoter (assay: NHR-promoter luciferase screen, mPgc1b promoter). Conditions: PGC1b promoter reporter; co-transfected HR, without or with its ligand.
Assay type: cell-based, mouse
Protocol: (§1) Briefly, there were co-expressed 50 ng of each NHR/NHR homodimer or NHR/RXR heterodimer with 100 ng promoter/luciferase construct and 50 ng of LacZ (as a control for transfection efficiency) in CV-1 cells using Fugene HD (Roche) as a transfection reagent (alternatively or additionally, a CMV-YFP construct can be used as a transfection control). Each of the nuclear hormone receptors that were used in these experiments was cloned into a pcDNA3.1 vector and comprised a C-terminally linked V5H6 tag.
(§2) The promoters that facilitate transcription of the indicated gene products that were tested using the protocols described herein are listed in the first row of the table. The nuclear hormone receptors and, where applicable, ligands that were assayed for their transcriptional effects on the promoters are listed in the first column of the table. The data represent the luciferase activity of each sample normalized to both the lacZ activity of that sample and to a control, e.g., no NHR or ligand, as customary in the art. As described previously, these normalizations allow the transcriptional activity of each reporter cell to be compared to other samples.
(§3) Tables 7-40 show the transcriptional effects of the hormone receptors, and, where applicable, ligands (orphan receptors are screened without ligand), on each individual promoter. […] The control data of each table are shown in their last rows.

Molecule | Luc. act., normalized to lacZ
B1 | 8.8
B2 | 4.69

Same assay, conditions: PGC1b promoter reporter; co-transfected HR, without or with its ligand; relative to control

Molecule | Normalized Luc. act., normalized to control
B1 | 0.7
B2 | 0.4

Same assay, conditions: mPgc1b promoter-luciferase, CV-1 cells, NHR +/- ligand, control = 1.00

Molecule | luciferase activity normalized to lacZ activity and to a control, mPgc1b
B1 | 0.74
B2 | 0.40

What follows are molecules tested on MCP-1 promoter (assay: NHR-promoter luciferase screen, MCP-1 promoter). Conditions: MCP-1 promoter reporter; HR without or with its ligand; relative to control.
Assay type: cell-based
Protocol: (§4) The use, feasibility, and reproducibility of the functional NHR-promoter screen in a 48-well format have been tested validated. Briefly, there were co-expressed 50 ng of each NHR/NHR homodimer or NHR/RXR heterodimer with 100 ng promoter/luciferase construct and 50 ng of LacZ (as a control for transfection efficiency) in CV-1 cells using Fugene HD (Roche) as a transfection reagent (alternatively or additionally, a CMV-YFP construct can be used as a transfection control). Each of the nuclear hormone receptors that were used in these experiments was cloned into a pcDNA3.1 vector and comprised a C-terminally linked V5H6 tag. Twenty-four hours after transfection, appropriate ligands were added, where applicable, (see Table 5 for various ligands and concentrations and after 48 hrs, samples were assayed for luciferase and LacZ activity. To measure for luciferase activity 15 ul of sample was added to 30 ul of luciferase buffer (20 mM tricine, 1.07 mM MgCarbonate, 2.67 mM MgSulfate, 0.1 mM Naz-EDTA, 5 mM DTT, 5 mM ATP, 0.15 mg/ml CoA, 0.5 mM Luciferin), mixed briefly, and run in a Perkin Elmer Victor 5 luminometer. Thus, the functional NHR-promoter screen was used to observe the transcriptional activity of 29 promoters from various physiological pathways including inflammation, lipid and sugar metabolism, cholesterol transport, xenobiotic metabolism, and circadian rhythm.
as §2, §3

Molecule | Normalized Luc. act., normalized to control
B1 | 1.4
B2 | 1.9

Same assay, conditions: MCP-1 promoter reporter; hormone receptor (HR) without or with its ligand

Molecule | Luc. act., normalized to lacZ
B1 | 149.4
B2 | 198.9

Same assay, conditions: transcription factor +/- ligand; control = 1.00

Molecule | mMCP-1 promoter reporter activity
B1 | 1.40
B2 | 1.86

The molecules below were run on hCYP3A4 promoter (assay: NHR-promoter luciferase screen, hCYP3A4 promoter). Conditions: CYP3A4 promoter; HR/ligand component.
Assay type: cell-based, human
Protocol: as §1, §2, §3

Molecule | Luc. act., normalized to lacZ | Normalized Luc. act., normalized to control
B1 | 2.2 | 0.5
B2 | 4.8 | 1.1

Same assay, conditions: transcription factor +/- ligand; control = 1.00

Molecule | hCYP3A4 promoter reporter activity
B1 | 0.50
B2 | 1.08

These molecules were tested on mDio1 promoter (assay: NHR-promoter luciferase screen, mDio1 promoter). Conditions: Dio1; HR component without or with its ligand.
Assay type: cell-based, mouse
Protocol: as §4, §2, §3

Molecule | Luc. act., normalized to lacZ | Normalized Luc. act., normalized to control
B1 | 5.7 | 1.3
B2 | 9.8 | 2.2

Same assay, conditions: transcription factor +/- ligand; control = 1.00

Molecule | mDio1 promoter reporter activity
B1 | 1.27
B2 | 2.19

These molecules were tested on mDio2 promoter (assay: NHR-promoter luciferase screen, mDio2 promoter). Conditions: Dio2; HR component without or with its ligand.
Assay type: cell-based, mouse
Protocol: as §4, §2, §3

Molecule | Luc. act., normalized to lacZ | Normalized Luc. act., normalized to control
B1 | 21.5 | 1.4
B2 | 18.1 | 1.2

Same assay, conditions: transcription factor +/- ligand; control = 1.00

Molecule | mDio2 promoter reporter activity
B1 | 1.37
B2 | 1.15

Each molecule was assayed on mABCA1 promoter (assay: NHR-promoter luciferase screen, mABCA1 promoter). Conditions: ABCA1 promoter; hormone receptor with or without its ligand.
Assay type: cell-based, mouse
Protocol: as §4, §2, §3

Molecule | Luc. act., normalized to lacZ
B1 | 46.3
B2 | 46.3

Same assay, conditions: ABCA1 promoter; hormone receptor with or without its ligand; relative to control

Molecule | Normalized Luc. act., normalized to control
B1 | 8.3
B2 | 8.3

Same assay, conditions: transcription factor +/- ligand; control = 1.00

Molecule | mABCA1 promoter reporter activity
B1 | 8.25
B2 | 8.25

Source: patent US20110263454A1, “Methods of Identifying Functional Characteristics of Promoters, Transcription Modifying Proteins and Transcription Modulating Agents” (Salk Institute for Biological Studies, priority 2008, published 2011)
